{"source": "paper PMC4897735", "about": "“Acousto-microfluidics for screening of ssDNA aptamer”", "biological_target": "prostate-specific antigen (PSA) (UniProt P07288 25-261)", "sequence (P07288 25-261)": "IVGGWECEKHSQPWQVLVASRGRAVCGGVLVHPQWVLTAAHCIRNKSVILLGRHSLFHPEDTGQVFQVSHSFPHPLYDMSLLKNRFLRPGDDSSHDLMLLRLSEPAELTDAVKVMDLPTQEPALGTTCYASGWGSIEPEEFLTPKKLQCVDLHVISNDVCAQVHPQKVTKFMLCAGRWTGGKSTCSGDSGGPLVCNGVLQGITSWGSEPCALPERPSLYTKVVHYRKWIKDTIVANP", "assay": "SPR; AS2 3-50 nM, 2 mM MgCl2; SPR (Biacore CM5): PBS pH 7.4, 2 mM MgCl2 (PBSM), 25 °C, 15 µl/min, blank flow cell reference", "conditions": "protein: commercial"}
{"binder": "GGGCGGGGCGGACGAGACAGTAAGGGCTGTGGGTGTGGTG (ssDNA)", "note": "[AS2]", "values": [{"measurement": "Kd", "result": 700, "unit": "pM"}]}
